# Results reported in publication PMC6350010.
# Target: Wild-type Aβ (1–40) peptide
# Test: single-molecule fluorescence burst analysis
substance,measurement,value
Atto655-Aβ40 (peptide),"mean of the oligomer size distribution, μ1 (relative photon number N phot,rel)","7.4 N¯phot,mon"
